Test results published in a protein production outcome set (Wang et al. 2014).

Test: label from the status in PepcDB records

| Sequence | protein production |
| --- | --- |
| MIQEIIAFLGRRGEFFYISVFMLLMFFIFLISWLIEPRRLINGVLFTIFFISVFAWITVMINKSTSRGLQRAYNLLLLIVFFGIILILVFAWLFLFWNAYFVWKYESHTLPNLLTLFSGFIALIFSVIFILGPGRYLPHWLSALLASIPAIAIYLGLVLYNFLVNLLLYQIYPRHYKQDYLIVLGAGLINGDQVSKLLAARINRAIQFSNRQYQKGRKRPIIIMSGGQGPDEKVPEALAMAKFAQHRGVSPDHILIEDQSKNTYQNMLFSKQLATNDFGGPNFKATFFSNNYHIFRAALLAKEVGLKANGVGAFTRLYYLPNAIIREFAGVFVMHKRRHFVIMGVIVLFFILQAILAAAGIVKFNVI | failed |
| MHKFIVIFVTLLISISVQTLAADLEIEEIELRETPQKMYDRLNQSISFPISFKNREQFERAAQEQGYSPDEFEHILQLLARLNLEPNVKTKVEFQDANSLIELLTSIAQTPLEQATVAMLKGRYIGRTEQKYQEAIAFYNQALSHINDSVDLGSMLLKHTIHEHLGLLHLVIRQDVPALMHFHTYRDIAYKLRNDYLIAAAESKLGHYYNKNQQLTKSLQHYSEAVRLSNRSNYPSMKTHLQLQLAKVYRDLKQWDEALKNAHEAAAGFKKLGNDTYLSSCMTVIAMVYGEQGDWNRAIDYYLNAQQLDAKRGNYIAQGLNFHNLGQAYSHLNDNVNALKYLLMANKIFTDKQSHHYLVYNELLIGEIAQSKQDWTLMMSHAEHALALASNLALLDEQKSALTQIALSAEKMQDQAKVISTQKRIIELNNTSKNTAKDPAVAASVLAEQQLKLELNMVQGKLNDAIESAKETNKLLALSGVILTLLVIAIIALLNQRQKSRRQNESLLQLTLEEPFTHHKGYAALLRDLGPNTPHTRTTALALIEFRDHLMTDLNHGQYFANAITCQLASHISNSLFMPVYVIRQGLFAVRFTETVDPQQALTQLQQQLDKNAFTAIFNLGFINLPLLTKTEINIAPKLLFETVQMALAGARSLPSNTCHYVSLRALDFVPPTLFADPLFLHLEKGIERGLIRVETNAMKEDIVWPCWENNQNRHLLGNI | failed |
| MNKVLINDTTLRDGEQAAGVVFTLEEKVAIAKFLDTIGVPELEVGIPAMGEEEMRAICAISNLGLKANLLAWNRAVISDIKASVACGMERVHIAIPVSGIQIAAKFHGQWRVSLQRLKDCISFAVDQGLWVAVGGEDSSRADENFLLDVALYAQEWGASRFRFCDTVGVLDPFTTYGKVKLLVSALTIPVEVHTHNDFGMATANALAGIKAGASSVNTTVIGLGERAGNAALEEVVMAIKRIYGVDMGIDTPRLLELSQLVAAASGANVPPWKAIVGENTFAHESGIHAHGVLQNPDTYEPFAPEEVGWERRLVVGKHSGRHSVSNLLEQHGIFLNPEETQSVLDAVRQQSIKKLEHHHHHH | failed |
| MTAYTSWQTPHLFIFIQQDYILDSIPLSSLFITLIILLLLSAFFSSAETGLMSLNRYKIRHLTAQGHKGAKLAEKLLNKTDVLLSLILICNNLINIAASAIATMIGIRLAGDTGIAIATGILTLVMLVFSEILPKTIAVIYPEKISFLASYILTPLKKLLMPLVFLMNLIIKYLMKLMRIRQHEKSGLSIEELRSVVLEAGKFIPTAHQEMLISILDMEKVTVEDIMVPRNDIGGIDIEDDWKAIIRQLNHAAHGRVVLYKGNMDKNILGILRIREAFRLLLDKEEPSKKTLIRAVDEAYFIPEGTPLITQLMHFKTNKERLGLVVDEYGDIKGLVTLADILEEIVGEFTTSTAPTLAEEVKQQSDGSVIIEGSANLRDLNKLFNWHLPINEVRTFNGLILEHLEKIPIEGTQFRLNQLNITVLEVADNMVKKVKVELIE | failed |
| MNLTYLFVLIWLAFLISSGVMLFSRGFLLARVSKTETSTCRRLSTNPNAEYVLTDEVVNEIFKDVNASSNLCLPQKSKVIVLVVDALKYEFGLYRANATDPLPYENKLVVLQELLQQNPDHARLMRFRADPPTTTLQRLKGLTTGSLPTFIDIGSNFASPEINEDNIIDQIVKNDLPVVFLGDSTWTDLYPHRFKRSYSYPSFDIFDLDSVDNEILKHLPKELESKDWQVLVAHFLGVDHCGHKHGPMHEEMARKLGEMNEVIRSVVAAMDNDTTLLVMGDHGMTASGDHGGDTDDETNALLFAYSKQHRFYGNDSGSDSEMLQQIDLVPTLATILGVPIPYSNLGLVNFNIVPDLRVPHLNKFQTLLLHSWQNAQQIYRYFFQYALENKRTFNVEQMDHLETEFILLTHRVQTVYNEVAFKSFVRDLNTNLRDILGTCREIWVRFDPTQMSQGLLFTFLPLFFIFLVVNNSRPADFPHIFKAKEVFYVYLINLAAGVFGYRYFKTFSFKTEEQGVIFFTAISSAVILAFHTLRHWTSIATNWSAVKRFGHMPTRLLLFGSMAVFFSNSFVIQEAKILSYLLAAAILLLSHELLRLSARLDFRTKFKASQFLRSTALRLILASVLAICLIRFAYTLFRCREEQGNCSDFVNTGGAGFSLKKPGTGKTYILAVVVLVVYTTLTRLYLRSCGNLTGNLPNVLLARYGPTVASICAGGHILLANSSIKHIQRTHIDAMALVIYGLLLVQIIVLSWAPLMTFVLPPRSSHTVTINGNESIVPEIFRKMKRMYEGDDDERRSHIPVVYGLATVYSSIVIAFGVFLALVMIVLLEPRASIGLVVCVAVGAILLSVHSILRYRTATSFESCVQPTFTALVGWFLLAHFCFFATSHQTTLSQIEWRAAFVGRTTGIGQSNLVSGALVILNTFCGPIFFFCMYSLLSTETFSLFALFPNLIRSCRSGGKVDASTSMSDLANEAVGFDMTRGELSLYEYEDVFLGTGFKLATQFFMLQGLKIFCAMLACTIHCRHLMVWKIFAPRFIYEALATFVSLPALIVGYLLVLRIHRGVDTLIKRINKAKVH | failed |
| MNPTFHADKPIYSQISDWMKKQMITGEWKGEDKLPSVREMGVKLAVNPNTVSRAYQELERAGYIYAKRGMGSFVTSDKALFDQLKKELADAITERFLEEAKSIGLDDQTAIELLIKRSRNHE | not failed |
| MSLSPDLLLAFALFALVTSITPGPNNTMLLASGVNFGFNRSIPHILGISCGFFVLVLAVGLGLGAVFEAYPLLYSVLRYVGAVYLLYLAWKIARSGPLSDEQQHHGRPLGYWGAAAFQWVNPKAWVMAVGAISTYTPLQGYFTNVLVIAAVFALINAPTVSLWAACGSLLRNVLRNPRWLRLFNLLMAALLVLSLAPLLFEKMS | failed |
| MLDLLVVAPHPDDGELGCGGTLARAKAEGLSTGILDLTRGEMGSKGTPEEREKEVAEASRILGLDFRGNLGFPDGGLADVPEQRLKLAQALRRLRPRVVFAPLEADRHPDHTAASRLAVAAVHLAGLRKAPLEGEPFRVERLFFYPGNHPFAPSFLVKISAFIDQWEAAVLAYRSQFTGEAASETVGPKGVEARKAMRRYWGNYLGVDYAEPFVSPLPVLYVPWSRA | not failed |
| MPSFRRSVAAVVTALPLIAGGCAHRPAVETASPEAVQWNLSDGAETTFYYLMLDQAARSDNTRDAIEAIENLIRLSPTARVYNDSGSFLLSRKEPDLARDILTRGVAAHPDDLGLTLLLAESYLDLDRNDEAIALLRAYNAKHPKDDEARQELAQLLVKTRRYEEADKLILSIGETSRTSLLRYYHARALMGLNRLTEATAQLRKAVKASPDFLEAWAELAYVYELRKNYVEAEKIYEQILALDEGNQDVWLRLVAINIKLNNPVKAYELARQGPETFGFMLTAATLFLDDRFFEQAEGLLLAVKDSPGAPEEVYFFLAVLAYEGQRDTDATLSWLLEVRPTNKYYDRALRLRSQLLYEKGDLEAALRTAREGRETFPEQRDFREMEAQLLVNMGRSEEALRVIDKAADRWPDDSGLLFMRALILDDRGAKDAAFAAMEEVIKASPNHAQALNYVGYTLAEQERDLTRAVSLLERANTLSPDNPFILDSLAWAYFKAGRIPEAWKAISRAIELNAPDPIIWEHYGDIATAMGQKNTARRAYRKALSMNPQNPDAIKAKLDKK | failed |
| MAAAFASLPTFSVVNSSRFPRRRIGFSCSKKPLEVRCSSGNTRYTKQRGAFTSLKECAISLALSVGLMVSVPSIALPPNAHAVANPVIPDVSVLISGPPIKDPEALLRYALPIDNKAIREVQKPLEDITDSLKIAGVKALDSVERNVRQASRTLQQGKSIIVAGFAESKKDHGNEMIEKLEAGMQDMLKIVEDRKRDAVAPKQKEILKYVGGIEEDMVDGFPYEVPEEYRNMPLLKGRASVDMKVKIKDNPNIEDCVFRIVLDGYNAPVTAGNFVDLVERHFYDGMEIQRSDGFVVQTGDPEGPAEGFIDPSTEKTRTVPLEIMVTGEKTPFYGSTLEELGLYKAQVVIPFNAFGTMAMAREEFENDSGSSQVFWLLKESELTPSNSNILDGRYAVFGYVTDNEDFLADLKVGDVIESIQVVSGLENLANPSYKIAG | failed |
| NKSIRMTPSQVAFEIRGTLLPGEVFAICGSCDALGNWNPQNAVALLPENDTGESMLWKATIVLSRGVSVQYRYFKGYFLEPKTIGGPCQVIVHKWETHLQPRSITPLESEIIIDDGQFGIHNGVETLDSGWLTCQTEIRLRLHYSEKPPVSITKKKLKKSRFRVKLTLEGLEEDDDDRVSPTVLHKMSNSLEISLISDNEFKCRHSQPECGYGLQPDRWTEYSIQTMEPDNLELIFDFFEEDLSEHVVQGDALPGHVGTACLLSSTIAESGKSAGILTLPIMSRNSRKTIGKVRVDYIIIKPLPGYSCDMKSSFSKYWKPRIPLDVGHRGAGNSTTTAQLAKVQENTIASLRNAASHGAAFVEFDVHLSKDFVPVVYHDLTCCLTMKKKFDADPVELFEIPVKELTFDQLQLLKLTHVTALKSKDRKESVVQEENSFSENQPFPSLKMVLESLPEDVGFNIEIKWICQQRDGMWDGNLSTYFDMNLFLDIILKTVLENSGKRRIVFSSFDADICTMVRQKQNKYPILFLTQGKSEIYPELMDLRSRTTPIAMSFAQFENLLGINVHTEDLLRNPSYIQEAKAKGLVIFCWGDDTNDPENRRKLKELGVNGLIYDRIYDWMPEQPNIFQVEQLERLKQELPELKSCLCPTVSRFVPSSLCGESDIHVDANGIDNVENA | not failed |
| MEMEMINIRVLRFEPGVDEKPHLESYEIPSKEKMKVLDALQLINKIHGANIAFRSSCRAGQCGSCAVKMNGEVVLACRAEVEDGAIIEPIDLPVIKDLMVDRGEIEEKVKSMQLYLQASSEGIQRIRPEDYLDSKKLRGCIECFSCISSCPVIKESSEYAGPYFMRYLSKFAFDPRDTGDRAQEGVDKGLYCCTTCGKCAEVCPKELNVPGDAIEKLRAMACREGSGPLDAHRRIKKLISETGRSVDRIKDGFIESVGKNPGSRIGFFTGCLVDYRMPEVGMALLRVLREHGFDVDVPEGQVCCGSPMIRTGQVDIVEDLVEKNRKALRDYDTIITVCAGCGATLKKDYPRYGVKLNVLDISEFLADRIDTIKMKPVNMRVTYHDPCHLKRGQGVEFEPRKILRKIPGLEFVEMEKPDQCCGSGGGVKSGKPEVAEALGRKKADMIRELDVDAVVTICPFCQLHIRDSLDLAGLENVRVMNILELLDLAYSD | failed |
| MADRQLLHTAHIPVRWGDMDSYGHVNNTLYFQYLEEARVAWFETLGIDLEGAAEGPVVLQSLHTYLKPVVHPATVVVELYAGRLGTSSLVLEHRLHTLEDPQGTYGEGHCKLVWVRHAENRSTPVPDSIRAAIA | not failed |
| MSSMNANAENSESKPKSGNDPLDHEGGDSSAASEDPNKSKTVSSDDDLSETNKEKEEEDCEECWLSRYLKKGDCKDAFIEVDHCREVKDDGTNCRDARLKLITCMYTNVDYYGPFLAMQKEMRTQSLKELEQGEEAAAAAKKKEEEEETKGK | failed |
| MSNHIDRDVINALIAGHFADPFSVLGMHRTDAGLEVRALLPDATDVWVIEPKTGRKVGKLECLDSRGFFSGVLPRRKNAFRYQLAVTWHGQQNLIDDPYRFGPLLQ | not failed |
| AQGLDGRMLVEAPEEVGAPADVAARLGIEPGALVVHRRRRATIGEDVVQLQDAWYPLEIARAAGLDRPGKVVGGVLGAMTGAGLSPTSTDHDVEVWVPSAQQAAELSLGSRVSVLVVERVTYDATVRVLELTRHTGAADRLTLTYKGLPLRATGAEGSTS | failed |
